Values quoted from earlier work, collected in article PMC6707866.

Target: Bag3 (Homo sapiens) (UniProt O95817)
Sequence of UniProt O95817 (O95817 2-575): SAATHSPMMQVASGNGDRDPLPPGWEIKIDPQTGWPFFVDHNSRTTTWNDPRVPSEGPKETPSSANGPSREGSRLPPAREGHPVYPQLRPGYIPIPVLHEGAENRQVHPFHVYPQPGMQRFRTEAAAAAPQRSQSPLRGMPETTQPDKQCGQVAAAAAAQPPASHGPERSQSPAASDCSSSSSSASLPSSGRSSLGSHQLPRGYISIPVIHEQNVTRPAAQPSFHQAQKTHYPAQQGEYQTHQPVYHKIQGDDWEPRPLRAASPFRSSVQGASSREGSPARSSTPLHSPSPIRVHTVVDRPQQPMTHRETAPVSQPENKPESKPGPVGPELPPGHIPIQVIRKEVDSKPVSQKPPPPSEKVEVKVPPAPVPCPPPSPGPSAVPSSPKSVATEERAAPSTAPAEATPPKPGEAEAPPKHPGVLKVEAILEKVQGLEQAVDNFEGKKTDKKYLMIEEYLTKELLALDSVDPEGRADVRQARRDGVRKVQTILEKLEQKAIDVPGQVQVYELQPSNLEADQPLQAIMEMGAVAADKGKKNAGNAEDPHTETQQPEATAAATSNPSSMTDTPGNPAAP

In the case of Hsp70 (from UniProt P0DMV8), the Kd is given as 0.025 µM.
